According to US8252737B2, “Antimicrobial peptides and methods of use” (priority 2004, dated 2012):
Converted amounts (≈) assume the structure as drawn. Square brackets hold non-standard residues; d marks the D form. Ends that are not written are not given here.

Legend:
human erythrocytes = assay: Hemolytic activity (MHC), Protocol B, 18 hours; settings: maximal peptide concentration showing no hemolysis after 18 hours, hRBC, Table 14
Description: In order to evaluate the biological activities of the D-enantiomeric peptides, namely D-NAL and D-NKD, the hemolytic activity of the peptides against human erythrocytes was determined as the maximal peptide concentration that produces no hemolysis after 18 hours of incubation at 37° C.
Measurement of Hemolytic Activity—Protocol A: Peptide samples were added to 1% human erythrocytes in phosphate buffered saline (0.08M NaCl; 0.043M Na2PO4; 0.011M KH2PO4) and reactions were incubated at 37° C. for 12 hours in microtiter plates. Peptide samples were diluted 2 fold in order to determine the concentration that produced no hemolysis. […] Hemoglobin release was determined spectrophotometrically at 562 nm. The hemolytic titer was the highest 2-fold dilution of the peptide that still caused release of hemoglobin from erythrocytes. The control for no release of hemoglobin was a sample of 1% erythrocytes without any peptide added. […] Peptide samples were diluted 2 fold in order to determine the concentration that produced no hemolysis. […] Hemoglobin release was determined spectrophotometrically at 570 nm. The hemolytic titer was the highest 2-fold dilution of the peptide that still caused release of hemoglobin from erythrocytes. The control for no release of hemoglobin was a sample of 1% erythrocytes without any peptide added.

[1] = tested on: Pseudomonas aeruginosa strains
Description: Pseudomonas aeruginosa strains used in this study are a diverse group of clinical isolates from different places in the world. […] The geometric mean MIC values from six Pseudomonas aeruginosa strains were calculated to provide an overall evaluation of antimicrobial activity of these peptides against Pseudomonas aeruginosa. Fold improvement was calculated by comparing the geometric mean MIC value of each peptide to that of the parent peptide V681.
Measurement of Antimicrobial Activity—Minimal inhibitory concentrations (MICs) were determined using a standard microtiter dilution method in LB (Luria-Bertani) no-salt medium (10 g of tryptone and 5 g of yeast extract per liter). Briefly, cells were grown overnight at 37° C. in LB and diluted in the same medium. […] Plates were incubated at 37° C. for 24 hours and MICs determined as the lowest peptide concentration that inhibited growth. Alternatively, minimal inhibitory concentrations were determined using a standard microtiter dilution method in a Mueller-Hinton (MH) medium. Briefly, cells were grown overnight at 37° C. in MH broth and diluted in the same medium. […] Plates were incubated at 37° C. for 24 hours and MICs determined as the lowest peptide concentration that inhibited growth. However, for MIC determination of Pseudomonas aeruginosa clinical isolates, brain heart infusion (BH1) medium was used instead of MH broth. In addition, the bacteria were diluted to a final inoculum of 1×10^6 colony-forming units/ml.
For the Leu-substituted peptides, the hemolytic activity against human erythrocytes was determined as the maximal peptide concentration that produces no hemolysis after 18 hours of incubation at 37° C. Antimicrobial activity of the peptides was determined on a diverse group of Pseudomonas aeruginosa clinical isolates. […] The geometric mean MIC values from six Pseudomonas strains in Table 14 were calculated to provide an overall evaluation of antimicrobial activity of the peptides with different hydrophobicities.

[2] = Circular dichroism spectroscopy of helical structure (benign buffer and 50% TFE); type: physicochemical; settings: 25° C.; for % helix 50% TFE / % helix Benign: relative to NAL in 50% TFE; for [θ]222 Benign: benign buffer (100 mM KCl, 50 mM PO4 pH 7.0); for [θ]222 50% TFE: benign buffer diluted 1:1 (v/v) with TFE; for % helix Benign: benign buffer
Description: To determine the secondary structure of peptides in different environments, circular dichroism (CD) spectra of the peptide analogs were measured under physiologically related pH and ionic strength (100 mM KCl, 50 mM aq. PO4, pH 7 referred to as benign conditions) and also in 50% TFE to mimic the hydrophobic environment of the membrane. […] On the non-polar face, the native L-Val residue was critical in maintaining α-helical structure. […] Even the substitution with L-Ala, which is known to have the highest α-helical propensity of all 20 amino acids (34), could not stabilize the α-helical structure. […] It is noteworthy that, on the non-polar face, the magnitude of the helical content of L-peptides in benign buffer was related to the hydrophobicity of the substituting amino acids, i.e., NLL>NVL>NAL>NSL, NKL, again showing the importance of hydrophobicity on the non-polar face in maintaining the α-helical structure. […] However, whether L- or D-substitutions were made on the non-polar face, high helical structure could be induced by the hydrophobic environment of 50% TFE, a mimic of the membrane's hydrophobicity and α-helix inducing ability (Table 3).
To determine the secondary structure of the D-enantiomeric peptides in different environments, CD spectra of the peptide analogs were measured under benign conditions (100 mM KCl, 50 mM KH2PO4/K2HPO4, pH 7.4, referred to as KP buffer) and also in 50% trifluoroethanol (TFE) to mimic the hydrophobic environment of the membrane. […] However, in the presence of 50% TFE, all three L-peptides were fully folded α-helical structures with similar ellipticities and helicity (Table 4).
Characterization of Helical Structure—The mean residue molar ellipticities of peptides were determined by circular dichroism (CD) spectroscopy, using a Jasco J-720 spectropolarimeter (Jasco, Easton, Md.), at 25° C. under benign conditions (50 mM KH2PO4/K2HPO4/100 mM KCl, pH 7), as well as in the presence of an α-helix inducing solvent, 2,2,2-trifluoroethanol (TFE) (50 mM KH2PO4/K2HPO4/100 mM KCl, pH 7 buffer/50% TFE). A 10-fold dilution of a ˜500 μM stock solution of the peptide analogs was loaded into a 0.02 cm fused silica cell and its ellipticity scanned from 190 to 250 nm. The values of molar ellipticities of the peptide analogs at a wavelength of 222 nm were used to estimate the relative α-helicity of the peptides.

[3] = RP-HPLC temperature profiling (hydrophobicity and self-association/dimerization parameter PA); type: physicochemical; settings: for tR (min) 5° C.: RP-HPLC retention time at 5° C. during temperature profiling (measure of hydrophobicity); for tR (min) 80° C.: RP-HPLC retention time at 80° C. during temperature profiling; for overall hydrophobicity change relative to PVL: RP-HPLC retention time difference at 80° C.; for overall hydrophobicity change relative to PVL / ΔtR (X-PSL) (min) 5° C. / ΔtR (X-PSL) (min) 80° C.: polar face substitutions; for tR (min) Max: maximal RP-HPLC retention time during temperature profiling 5-80° C.; for PA (min) association parameter: maximal retention time difference relative to control peptide C within 5-80° C.; for ΔtR (X-PSL) (min) 5° C.: retention time difference relative to native peptide V681 (PSL) at 5° C.; for ΔtR (X-PSL) (min) 80° C.: retention time difference relative to native peptide V681 (PSL) at 80° C.
Description: The retention time data for the peptides is shown in Table 5 which records retention times at 5° C., the maximal retention times and retention times at 80° C. during the temperature profiling. Temperatures of 5° C. and 80° C. were the lower and upper temperature limits of temperature profiling in RP-HPLC, representing dimerization of the peptides at 5° C. and the monomerization of peptides at 80° C. due to dissociation of the dimers. The maximal retention times represent the threshold points at which peptides transform from dimeric to monomeric form. Among the non-polar face substituted peptides, peptides with more hydrophobic substitutions (whether L- or D-amino acid substitutions) were more retained during RP-HPLC, i.e., peptides were eluted in the order of Lys, Gly, Ser, Ala, Val and Leu (Table 5). In addition, on the non-polar face, the L-analogs were always more retained than the D-diastereomers (Table 5, FIG. 5). […] In contrast, on the polar face, the elution order of peptides was not correlated with the order of amino acid side-chain hydrophobicity, e.g., PAL and PSL were more retained than PVL (Table 5); PSD was the most retained peptide among the D-amino acid substituted analogs on the polar face (Table 5).
The ability of the D-peptides to self-associate was determined by RP-HPLC temperature profiling. […] As expected, L- and D-peptide enantiomers were totally inseparable over this temperature range, since each pair of peptides is identical in sequence and must adopt identical conformations on interacting with the reversed-phase matrix, whether in an all-L- or all-D-conformation. RP-HPLC retention behavior has been frequently utilized to represent overall peptide hydrophobicity (53, 26). In the present study, the hydrophobicity of the three peptide pairs is in the order V681/D-V681>[…]>NKL/D-NKD (Table 4), which agrees with the change in hydrophobicity of the substitutions at position 13 in order of the most hydrophobic to the least hydrophobic amino acid residue (Val in V681>Ala in NA>Lys in NK) (54). […] For example, the retention times of peptides V681/D-V681 increase with increasing temperature (up to ˜30° C.) followed by a retention time decrease with a further temperature increase. […] Since peptide C is a monomeric random coil peptide in both aqueous and hydrophobic media, its retention behavior over the temperature range 5° C. to 80° C. represents only general temperature effects on peptide retention behavior, i.e., a linear decrease in peptide retention time with increasing temperature due to greater solute diffusivity and enhanced mass transfer between the stationary and mobile phases at higher temperatures (55). Thus, after normalization to the retention times of peptide C, the retention behavior of the peptides represents only peptide self-association ability. Note that the higher the PA value, the greater the self-association ability. […] From Table 4, it is also clear that the peptide retention times at 80° C. are dramatically lower than those at 5° C.
Elution times during RP-HPLC have frequently been utilized as a measure of relative hydrophobicity of peptide analogs (26, 31). In the current study, peptide analogs differed only by a single amino acid substitution on either the non-polar face or the polar face of V681; thus, the retention time data in Table 5 can be considered to reflect the hydrophobicity difference between peptide analogs. In order to more easily visualize the variation in hydrophobicity of the peptide analogs, the retention time data in Table 5 were normalized relative to that of the native peptide V681 at 5° C. and 80° C., respectively. Hydrophobicity relative to the native peptide V681 indicates an increase or decrease of the apparent peptide hydrophobicity with the different amino acid substitutions on the polar or non-polar face. […]

Compound | % helix 50% TFE [2] | [θ]222 Benign [2] | [θ]222 50% TFE [2] | % helix Benign [2] | tR (min) 5° C. [3] | tR (min) 80° C. [3] | overall hydrophobicity change relative to PVL [3] | tR (min) Max [3] | PA (min) association parameter [3] | ΔtR (X-PSL) (min) 5° C. ([3]; relative hydrophobicity) | ΔtR (X-PSL) (min) 80° C. ([3]; relative hydrophobicity) | also measured
CC[C@H](C)[C@H](NC(=O)[C@H](C)NC(=O)[C@H](CCCCN)NC(=O)[C@H](CC(C)C)NC(=O)[C@H](C)NC(=O)[C@@H](NC(=O)[C@H](Cc1c[nH]cn1)NC(=O)[C@H](CC(C)C)NC(=O)[C@@H](NC(=O)[C@@H](NC(=O)[C@H](CCCCN)NC(=O)[C@H](CCCCN)NC(=O)[C@H](CC(C)C)NC(=O)[C@H](CO)NC(=O)[C@H](CCCCN)NC(=O)[C@H](Cc1ccccc1)NC(=O)[C@@H](NC(=O)[C@H](CCCCN)NC(=O)[C@H](CC(C)C)NC(=O)[C@H](Cc1ccccc1)NC(=O)[C@H](CO)NC(=O)[C@H](CCCCN)NC(=O)[C@H](Cc1c[nH]c2ccccc12)NC(=O)[C@H](CCCCN)NC(C)=O)[C@@H](C)O)[C@@H](C)O)C(C)C)[C@@H](C)O)C(=O)N[C@@H](CO)C(=O)N[C@@H](CO)C(N)=O [Peptide A12L] |  |  |  |  |  |  |  |  |  |  |  | Hemolytic activity MHC (human erythrocytes): 31.3 µg/mL; MIC (μg/ml) CP 204 ([1]; Pseudomonas aeruginosa clinical isolate CP 204): 15.6 µg/mL (≈ 5.14 µM); MIC (μg/ml) M 2 ([1]; Pseudomonas aeruginosa clinical isolate M 2): 15.6 µg/mL (≈ 5.14 µM); MIC (μg/ml) PA 14 ([1]; Pseudomonas aeruginosa clinical isolate PA 14): 31.3 µg/mL (≈ 10.3 µM); MIC (μg/ml) PAK ([1]; Pseudomonas aeruginosa clinical isolate PAK): 31.3 µg/mL (≈ 10.3 µM); MIC (μg/ml) PAO 1 ([1]; Pseudomonas aeruginosa clinical isolate PAO 1): 15.6 µg/mL (≈ 5.14 µM); MIC (μg/ml) WR 5 ([1]; Pseudomonas aeruginosa clinical isolate WR 5): 62.5 µg/mL (≈ 20.6 µM); MIC (μg/ml) GM ([1]; geometric mean of the MIC values for the 6 Pseudomonas aeruginosa clinical isolates): 24.8 µg/mL (≈ 8.18 µM)
PKL: V681 analog with L-Lys at position 11 (polar face) (KWKSFLKTFKKAVKTVLHTALKAISS) | 94% | −5,950 deg · cm^2 · dmol^−1 | −27,350 deg · cm^2 · dmol^−1 | 21% | 46.38 min | 43.89 min | -2.29 min | 47.90 min | 3.17 min | -1.72 min | -1.94 min | 
NLD: V681 analog with D-Leu at position 13 (non-polar face) (KWKSFLKTFKSA[dL]KTVLHTALKAISS-NH2; not fully specified) | 89% | −7,350 deg · cm^2 · dmol^−1 | −25,750 deg · cm^2 · dmol^−1 | 25% | 45.10 min | 43.03 min |  | 46.37 min | 3.02 min |  |  | ΔtR (X-NVL) (min) 5° C. ([3]; non-polar face substitutions, retention time difference relative to native peptide V681 (NVL) at 5° C., relative hydrophobicity): -3.00 min; ΔtR (X-NVL) (min) 80° C. ([3]; non-polar face substitutions, retention time difference relative to native peptide V681 (NVL) at 80° C., relative hydrophobicity): -2.80 min
PAL: V681 analog with L-Ala at position 11 (polar face) (KWKSFLKTFKAAVKTVLHTALKAISS) | 95% | −13,600 deg · cm^2 · dmol^−1 | −27,600 deg · cm^2 · dmol^−1 | 47% | 48.25 min | 46.63 min | +0.45 min | 50.57 min | 4.15 min | 0.15 min | 0.80 min | 
PLL: V681 analog with L-Leu at position 11 (polar face) (KWKSFLKTFKLAVKTVLHTALKAISS) | 99% | −10,850 deg · cm^2 · dmol^−1 | −28,550 deg · cm^2 · dmol^−1 | 37% | 48.78 min | 47.51 min |  | 51.23 min | 4.33 min | 0.68 min | 1.68 min | 
